From PMC12643061, “Structural dynamics of the plant hormone receptor ETR1 in a native‐like membrane environment” (Febs Letters, 2025)

Target: the molecule itself
Test: SEC; ETR1 in DMPC/MSP1E3D1 nanodiscs; Superose 6 Increase 10/300 GL, 50 mM Tris-HCl pH 8.0, 200 mM NaCl, 0.3 mL/min; column calibrated with protein standards; elution volume 16.77 mL, ~450 kDa

B1: ethylene receptor 1 (ETR1) from Arabidopsis thaliana, full-length, with N-terminal 10xHis-tag (receptor, UniProt P49333 1-738, looked up)
chain: MEVCNCIEPQWPADELLMKYQYISDFFIAIAYFSIPLELIYFVKKSAVFPYRWVLVQFGAFIVLCGATHLINLWTFTTHSRTVALVMTTAKVLTAVVSCATALMLVHIIPDLLSVKTRELFLKNKAAELDREMGLIRTQEETGRHVRMLTHEIRSTLDRHTILKTTLVELGRTLALEECALWMPTRTGLELQLSYTLRHQHPVEYTVPIQLPVINQVFGTSRAVKISPNSPVARLRPVSGKYMLGEVVAVRVPLLHLSNFQINDWPELSTKRYALMVLMLPSDSARQWHVHELELVEVVADQVAVALSHAAILEESMRARDLLMEQNVALDLARREAETAIRARNDFLAVMNHEMRTPMHAIIALSSLLQETELTPEQRLMVETILKSSNLLATLMNDVLDLSRLEDGSLQLELGTFNLHTLFREVLNLIKPIAVVKKLPITLNLAPDLPEFVVGDEKRLMQIILNIVGNAVKFSKQGSISVTALVTKSDTRAADFFVVPTGSHFYLRVKVKDSGAGINPQDIPKIFTKFAQTQSLATRSSGGSGLGLAISKRFVNLMEGNIWIESDGLGKGCTAIFDVKLGISERSNESKQSGIPKVPAIPRHSNFTGLKVLVMDENGVSRMVTKGLLVHLGCEVTTVSSNEECLRVVSHEHKVVFMDVCMPGVENYQIALRIHEKFTKQRHQRPLLVALSGNTDKSTKEKCMSFGLDGVLLKPVSLDNIRDVLSDLLEPRVLYEGM
notes: Ethylene receptor 1 (ETR1), Arabidopsis thaliana, full length, 738 residues, 82.5 kDa per monomer; Membrane protein, measured embedded in DMPC nanodiscs held by the scaffold protein MSP1E3D1 (His-tag cleaved by TEV); No cleavage of the ETR1 His-tag is described; the loaded nanodiscs were eluted from Ni-INDIGO beads by it just before SEC; also called ETR1_10xHis; ethylene receptor ETR1; source: E. …
**Q.** B1 was tested. Which “stoichiometry N” value did it give?
**A.** Its value is 2.
